Starred links: 1 amine or outer side, 2 acyl side, 3 side chain; linkers in the order of their positions; H or OH if unused. Non-standard residues stand in square brackets, D forms with d. Residues, ends and D or L forms follow the SMILES beside them. Groups on a side chain read outwards from the residue. No end group written: not given here. *: point of attachment. C18 diacid = O=C(O)CCCCCCCCCCCCCCCCC(=O)*; C16 diacid = O=C(O)CCCCCCCCCCCCCCC(=O)*; γGlu = O=C(O)[C@H](CCC(=O)[*:2])N[*:1]; Glutaryl = O=C(CCCC(=O)[*:2])[*:1]; Nle = CCCC[C@H](N)C(=O)O; AEEA = NCCOCCOCC(=O)O; Aib = CC(C)(N)C(=O)O
Experiments:
human GIP receptor [1] = target: T1, human GIP receptor (Homo sapiens, UniProt P48546); test: cAMP assay Alternative 1 (CisBio assay), GIPR antagonism; type: cell-based; conditions: for cAMP antagonism % inhib: Table 2B, % inhibition of Emax
T1 construct: host or cells: HEK-293 cells, transient transfection (Lipofectamine 2000), cDNA in pCMV-Script vector
T1 sequence (P48546 22-466): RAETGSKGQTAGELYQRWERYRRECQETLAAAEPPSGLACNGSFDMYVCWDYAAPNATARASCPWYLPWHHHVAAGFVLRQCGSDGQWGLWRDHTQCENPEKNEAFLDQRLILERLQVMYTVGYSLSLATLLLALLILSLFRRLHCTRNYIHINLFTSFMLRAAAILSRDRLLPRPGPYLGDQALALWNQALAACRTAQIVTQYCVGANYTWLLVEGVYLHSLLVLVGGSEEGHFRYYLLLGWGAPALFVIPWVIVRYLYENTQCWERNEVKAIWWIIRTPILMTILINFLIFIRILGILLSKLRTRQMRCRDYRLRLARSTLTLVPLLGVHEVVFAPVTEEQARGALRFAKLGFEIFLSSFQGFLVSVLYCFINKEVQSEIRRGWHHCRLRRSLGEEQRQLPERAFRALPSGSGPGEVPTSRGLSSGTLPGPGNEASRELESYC
Procedure: HEK293 cells were cultured in 10% CO2 and 37° C. in Dulbecco's modified Eagle's medium supplemented with 10% fetal bovine serum, 2 mM glutamine, 180 units/ml penicillin, and 45 µg/ml streptomycin. Transient transfection with hGIPR for the CisBio assay from Table 2C was performed by using Lipofectamine 2000.
The in vitro functional activity of compounds towards human GIP receptor can also be determined in HEK-293 cells transiently expressing the receptor. On the day of the assay, cells were resuspended in HBSS buffer (Gibco, 14025-50) supplemented with […] (Gibco, 15630-106), 0.1% Pluronic F-68 (Gibco, 24040-032) and 0.1% casein (Sigma, C4765), and plated in 384-well plates at a density of 5000 cells/well. The GIP peptide analogues of the present disclosure were diluted in HBSS buffer supplemented with 20 mM HEPES, 0.1% pluronic, 0.1% casein and 500 uM IBMX. […] The resulting decrease in intracellular cAMP was quantitatively determined using the CisBio cAMP Dynamic 2 HTRF Assay Kit. The assay is based on a competition between native cAMP produced by cells and cAMP labeled with the dye d2 for binding to a cryptate labeled antibody. The specific signal (i.e. energy transfer signal) is inversely proportional to the concentration of cAMP in the sample.
The cAMP-d2 conjugate and the antibody anti-cAMP-Cryptate, both diluted in lysis buffer provided in the kit, were added to the cells according to the manufacturer's protocol. The resulting competitive assay was incubated for 60 minutes at room temperature, and the signal was detected by using a PerkinElmer Envision® instrument with excitation at 320 nm and emission at 665 nm and 620 nm. The HTRF ratio (emission at 665 nm/620 nm*10,000) is inversely proportional to the amount of cAMP present and is converted to nM cAMP per well using a cAMP standard curve. The dose-response curves were fitted using the non-linear regression analysis (four-logistic parameter equation) in GraphPad Prism, whereby pIC50 values were estimated. To test for agonistic properties at the GIP receptor, compounds were diluted and added to cells as described above and incubated for 30 min at 37° C. The resulting increase in intracellular cAMP was determined using the CisBio cAMP Dynamic 2 HTRF Assay Kit as described above.
The dose-response curves were fitted using the non-linear regression analysis (four-logistic parameter equation) in GraphPad Prism, whereby pIC50 values were estimated.

human GIP receptor [2] = target: T2, human GIP receptor (human, UniProt P48546 22-466); test: cell-based or functional assay
T2 sequence (looked up): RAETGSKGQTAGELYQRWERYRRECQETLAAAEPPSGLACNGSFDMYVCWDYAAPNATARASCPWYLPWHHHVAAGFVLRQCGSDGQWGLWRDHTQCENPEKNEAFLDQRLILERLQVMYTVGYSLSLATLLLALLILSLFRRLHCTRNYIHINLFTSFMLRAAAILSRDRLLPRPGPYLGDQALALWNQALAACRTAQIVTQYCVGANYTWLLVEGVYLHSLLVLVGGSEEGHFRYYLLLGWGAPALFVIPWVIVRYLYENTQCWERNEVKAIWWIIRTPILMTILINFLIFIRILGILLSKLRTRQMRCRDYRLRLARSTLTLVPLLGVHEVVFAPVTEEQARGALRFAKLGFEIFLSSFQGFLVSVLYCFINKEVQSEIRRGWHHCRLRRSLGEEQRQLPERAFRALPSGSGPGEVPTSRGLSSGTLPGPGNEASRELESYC

## CC[C@H](C)[C@H](NC(=O)[C@H](CO)NC(=O)[C@H](Cc1ccc(O)cc1)NC(=O)[C@H](CCC(=O)O)NC(=O)[C@H](CO)NC(=O)[C@@H](NC(=O)[C@H](Cc1ccccc1)NC(=O)[C@@H](NC(=O)CNC(=O)[C@@H](N)CCC(=O)O)[C@@H](C)O)[C@@H](C)CC)C(=O)N[C@@H](C)C(=O)N[C@@H](CCSC)C(=O)N[C@@H](CCC(=O)O)C(=O)N[C@@H](CCCCN)C(=O)N[C@H](C(=O)N[C@@H](CCCCNC(=O)CCCCCCCCCCCCCCC(=O)O)C(=O)N[C@@H](CCC(N)=O)C(=O)N[C@@H](CCC(N)=O)C(=O)N[C@@H](CCC(=O)O)C(=O)N[C@@H](Cc1ccccc1)C(=O)N[C@H](C(=O)N[C@@H](CCC(=O)O)C(=O)N[C@@H](Cc1c[nH]c2ccccc12)C(=O)N[C@@H](CC(C)C)C(=O)N[C@@H](CC(C)C)C(=O)N[C@@H](C)C(=O)N[C@@H](CCC(N)=O)C(=O)N[C@@H](CCCCN)C(=O)N1CCC[C@H]1C(=O)N[C@@H](CO)C(=O)N[C@@H](CO)C(=O)NCC(=O)N[C@@H](C)C(=O)N1CCC[C@H]1C(=O)N1CCC[C@H]1C(=O)N1CCC[C@H]1C(=O)N[C@@H](CO)C(=O)O)C(C)C)[C@@H](C)CC [AT614] (H-EGTFISEYSIAMEKIK(C16 diacid)QQEFVEWLLAQKPSSGAPPPS-OH; N-terminus assumed)
Human GIP receptor [1]
  cAMP antagonism % inhib: 100%

## CC[C@H](C)[C@H](NC(=O)[C@H](CO)NC(=O)[C@H](Cc1ccc(O)cc1)NC(=O)[C@H](CC(=O)O)NC(=O)[C@H](CO)NC(=O)[C@@H](NC(=O)[C@H](Cc1ccccc1)NC(=O)[C@@H](NC(=O)CNC(=O)[C@@H](N)CCC(=O)O)[C@@H](C)O)[C@@H](C)CC)C(=O)N[C@@H](C)C(=O)N[C@@H](CCSC)C(=O)N[C@@H](CC(=O)O)C(=O)N[C@@H](CCCCN)C(=O)N[C@H](C(=O)N[C@@H](CCCCNC(=O)CCCCCCCCCCCCCCC(=O)O)C(=O)N[C@@H](CCC(N)=O)C(=O)N[C@@H](CCC(N)=O)C(=O)N[C@@H](CC(=O)O)C(=O)N[C@@H](Cc1ccccc1)C(=O)N[C@H](C(=O)N[C@@H](CCC(=O)O)C(=O)N[C@@H](Cc1c[nH]c2ccccc12)C(=O)N[C@@H](CC(C)C)C(=O)N[C@@H](CC(C)C)C(=O)N[C@@H](C)C(=O)N[C@@H](CCC(N)=O)C(=O)N[C@@H](CCCCN)C(=O)N1CCC[C@H]1C(=O)N[C@@H](CO)C(=O)N[C@@H](CO)C(=O)NCC(=O)N[C@@H](C)C(=O)N1CCC[C@H]1C(=O)N1CCC[C@H]1C(=O)N1CCC[C@H]1C(=O)N[C@@H](CO)C(=O)O)C(C)C)[C@@H](C)CC [AT617] (H-EGTFISDYSIAMDKIK(C16 diacid)QQDFVEWLLAQKPSSGAPPPS-OH; N-terminus assumed)
Human GIP receptor [1]
  IC50: 0.794 nM
  cAMP antagonism % inhib: 91%

## CC[C@H](C)[C@H](NC(=O)[C@H](CO)NC(=O)[C@H](Cc1ccc(O)cc1)NC(=O)[C@H](CC(=O)O)NC(=O)[C@H](CO)NC(=O)[C@@H](NC(=O)[C@H](Cc1ccccc1)NC(=O)[C@@H](NC(=O)CNC(=O)[C@@H](N)CCC(=O)O)[C@@H](C)O)[C@@H](C)CC)C(=O)N[C@@H](C)C(=O)N[C@@H](CCSC)C(=O)N[C@@H](CC(=O)O)C(=O)N[C@@H](CCCCN)C(=O)N[C@H](C(=O)N[C@@H](CCCCNC(=O)CCCCCCCCCCCCCCC(=O)O)C(=O)N[C@@H](CCC(N)=O)C(=O)N[C@@H](CCC(N)=O)C(=O)N[C@@H](CC(=O)O)C(=O)N[C@@H](Cc1ccccc1)C(=O)N[C@H](C(=O)N[C@@H](CCC(=O)O)C(=O)N[C@@H](Cc1c[nH]c2ccccc12)C(=O)N[C@@H](CC(C)C)C(=O)N[C@@H](CC(C)C)C(=O)N[C@@H](C)C(=O)N[C@@H](CCC(N)=O)C(=O)N[C@@H](C)C(=O)N1CCC[C@H]1C(=O)N[C@@H](CO)C(=O)N[C@@H](CO)C(=O)NCC(=O)N[C@@H](C)C(=O)N1CCC[C@H]1C(=O)N1CCC[C@H]1C(=O)N1CCC[C@H]1C(=O)N[C@@H](CO)C(=O)O)C(C)C)[C@@H](C)CC [AT623] (H-EGTFISDYSIAMDKIK(C16 diacid)QQDFVEWLLAQAPSSGAPPPS-OH; N-terminus assumed)
Human GIP receptor [1]
  cAMP antagonism % inhib: 98%

## CCCC[C@H](NC(=O)C(C)(C)NC(=O)[C@@H](NC(=O)[C@H](CO)NC(=O)[C@H](Cc1ccc(O)cc1)NC(=O)[C@H](CC(=O)O)NC(=O)[C@H](CO)NC(=O)[C@@H](NC(=O)[C@H](Cc1ccccc1)NC(=O)[C@@H](NC(=O)CNC(=O)[C@@H](N)CCC(=O)O)[C@@H](C)O)[C@@H](C)CC)[C@@H](C)CC)C(=O)N[C@@H](CC(=O)O)C(=O)N[C@@H](CCCCN)C(=O)N[C@H](C(=O)N[C@@H](CCCCNC(=O)CCCCCCCCCCCCCCC(=O)O)C(=O)N[C@@H](CCC(N)=O)C(=O)N[C@@H](CCC(N)=O)C(=O)N[C@@H](CC(=O)O)C(=O)N[C@@H](Cc1ccccc1)C(=O)N[C@H](C(=O)N[C@@H](CCC(=O)O)C(=O)N[C@@H](Cc1c[nH]c2ccccc12)C(=O)N[C@@H](CC(C)C)C(=O)N[C@@H](CC(C)C)C(=O)N[C@@H](C)C(=O)N[C@@H](CCC(N)=O)C(=O)N[C@@H](CCCCN)C(=O)N1CCC[C@H]1C(=O)N[C@@H](CO)C(=O)N[C@@H](CO)C(=O)NCC(=O)N[C@@H](C)C(=O)N1CCC[C@H]1C(=O)N1CCC[C@H]1C(=O)N1CCC[C@H]1C(=O)N[C@@H](CO)C(=O)O)C(C)C)[C@@H](C)CC [AT667] (H-EGTFISDYSI[Aib][Nle]DKIK(C16 diacid)QQDFVEWLLAQKPSSGAPPPS-OH; N-terminus assumed)
Human GIP receptor [1]
  cAMP antagonism % inhib: 86%

B1: AT696 (peptide)
peptide: EGTFISEYSI[Aib][Nle]EKIK([AEEA-AEEA-γGlu-C18 diacid])QQEFVEWLLAQKPSSGAPPPS-OH
modifications: N-terminus assumed
SMILES: CCCC[C@H](NC(=O)C(C)(C)NC(=O)[C@@H](NC(=O)[C@H](CO)NC(=O)[C@H](Cc1ccc(O)cc1)NC(=O)[C@H](CCC(=O)O)NC(=O)[C@H](CO)NC(=O)[C@@H](NC(=O)[C@H](Cc1ccccc1)NC(=O)[C@@H](NC(=O)CNC(=O)[C@@H](N)CCC(=O)O)[C@@H](C)O)[C@@H](C)CC)[C@@H](C)CC)C(=O)N[C@@H](CCC(=O)O)C(=O)N[C@@H](CCCCN)C(=O)N[C@H](C(=O)N[C@@H](CCCCNC(=O)COCCOCCNC(=O)COCCOCCNC(=O)CC[C@H](NC(=O)CCCCCCCCCCCCCCCCC(=O)O)C(=O)O)C(=O)N[C@@H](CCC(N)=O)C(=O)N[C@@H](CCC(N)=O)C(=O)N[C@@H](CCC(=O)O)C(=O)N[C@@H](Cc1ccccc1)C(=O)N[C@H](C(=O)N[C@@H](CCC(=O)O)C(=O)N[C@@H](Cc1c[nH]c2ccccc12)C(=O)N[C@@H](CC(C)C)C(=O)N[C@@H](CC(C)C)C(=O)N[C@@H](C)C(=O)N[C@@H](CCC(N)=O)C(=O)N[C@@H](CCCCN)C(=O)N1CCC[C@H]1C(=O)N[C@@H](CO)C(=O)N[C@@H](CO)C(=O)NCC(=O)N[C@@H](C)C(=O)N1CCC[C@H]1C(=O)N1CCC[C@H]1C(=O)N1CCC[C@H]1C(=O)N[C@@H](CO)C(=O)O)C(C)C)[C@@H](C)CC
Human GIP receptor [2]
  cAMP antagonism % inhib (CisBio assay): 97%
  cAMP antagonism nM (IC50, CisBio assay): 0.584 nM
  cAMP antagonism pIC50 (CisBio assay): 9.2

## Glutaryl-GTFISDYSIA[Nle]DKIK(C16 diacid)QQDFVEWLLAQKPSSGAPPPS-OH [AT700]
Human GIP receptor [2]
  cAMP antagonism % inhib (CisBio assay): 89%
  cAMP antagonism nM (IC50, CisBio assay): 0.708 nM
  cAMP antagonism pIC50 (CisBio assay): 9.2

## Glutaryl-GTFISDYSIA[Nle]DKIK([AEEA-AEEA-γGlu-C18 diacid])QQDFVEWLLAQKPSSGAPPPS-OH [AT702]
Human GIP receptor [2]
  cAMP antagonism % inhib (CisBio assay): 85%
  cAMP antagonism nM (IC50, CisBio assay): 3.55 nM
  cAMP antagonism pIC50 (CisBio assay): 8.5
